Read-outs that look alike come from different tables or passages of the source.
Legend:
PC-3 xenografts = experiment: in vivo; design: species or system BALB/C nu/nu mice; details: mouse; for Kidneys uptake: BALB/C nu/nu
Method: (§1) All in vivo studies were performed following European guidelines on laboratory animal protection. The in vivo stability experiments were carried out in healthy male Swiss albino mice; the study protocol was approved by the Department of Agriculture and Veterinary Service of the Prefecture of Athens (protocol number #440448, 01-06-2021). The biodistribution, in vivo targeting specificity assay, and SPECT/CT imaging experiments were carried out on BALB/C nu/nu mice. The Ethics Committee for Animal Research in Uppsala (Sweden) approved the latter in vivo animal studies (permit number 00473/21). The BALB/C nu/nu mice were implanted with GRPR-positive prostate cancer xenografts by subcutaneous injection on the right hind leg of PC-3 cells suspended in PBS (7 × 10^6 cells/mouse) four weeks before the biodistribution studies.
(§2) The mice were iv injected with 40 pmol peptide (30 kBq in a total volume of 100 μL 1% bovine serum albumin (BSA) in PBS). […] At the indicated time points, mice were euthanized under anesthesia. The organs of interest were collected, weighed, and the sample radioactivity content was measured on the gamma counter. The percentage of injected activity per gram (%IA/g) of collected tumors, organs and tissues, the %IA for the remaining gastrointestinal tract and carcass, as well as the tumor-to-organ ratios (T/O) were calculated.

in vivo = experiment: in vivo; design: species or system BALB/C nu/nu mice; details: BALB/C nu/nu, mouse, iv, total radioactivity; for tissue to tissue ratio at 4 h: Tumor-to-organ ratio
Method: as §1, §2

[1] = Radiochemical stability: indium release in PBS or with EDTA excess, by iTLC; type: physicochemical; details: room temperature, 0.2 M citric acid, mean ± sd, n = 3
Method: The radiochemical yield was analyzed with instant thin layer chromatography (iTLC) strips (Agilent Technologies, Santa Clara, CA, USA), using 0.2 M citric acid buffer as a mobile phase (Rf = 0 for the radiolabeled peptide and Rf = 1 for free indium). The iTLC results were analyzed using Cyclone® Plus Phosphorimager (PerkinElmer, Hägersten, Sweden). The radiochemical stability was determined by incubating the radiolabeled compounds with phosphate-buffered saline (PBS) or a 1000-fold molar excess of ethylenediaminetetraacetic acid (EDTA) for 1 h at room temperature. The percentage of indium release was assessed by iTLC using 0.2 M citric acid as mobile phase. Stability tests were performed in triplicate for each compound.

PC-3 cells = experiment: Cellular internalization; type: cell-based, human; details: 1 nM, acid wash, mean of 3 dishes ± sd, normalized to maximum cell association at 24 h
Method: For the cellular internalization assay, PC-3 cells (1 × 10^6 cells/dish) were used. The cells were incubated with 1 mL (1 nM) of solution containing the radiolabeled peptide under evaluation. At the 4 h and 24 h time points, the cells were treated with an acid wash (0.2 M glycine buffer with 0.15 M NaCl and 4 M urea, pH 2) for 5 min on ice to remove the membrane-bound peptide. After collection of acid fractions, the cells were treated with 1 M NaOH for at least 30 min and the cell debris were scraped and collected. The activity content in samples was measured using the gamma counter.

human GRPR = molecular target: T1, human GRPR (Homo sapiens, UniProt P30550); experiment: Affinity measurements in real time (LigandTracer) on PC-3 cells; type: binding; details: room temperature, 1:2 fitting interaction model
T1 construct: host or cells: PC-3 human prostate adenocarcinoma cells
T1 sequence (P30550 whole entry): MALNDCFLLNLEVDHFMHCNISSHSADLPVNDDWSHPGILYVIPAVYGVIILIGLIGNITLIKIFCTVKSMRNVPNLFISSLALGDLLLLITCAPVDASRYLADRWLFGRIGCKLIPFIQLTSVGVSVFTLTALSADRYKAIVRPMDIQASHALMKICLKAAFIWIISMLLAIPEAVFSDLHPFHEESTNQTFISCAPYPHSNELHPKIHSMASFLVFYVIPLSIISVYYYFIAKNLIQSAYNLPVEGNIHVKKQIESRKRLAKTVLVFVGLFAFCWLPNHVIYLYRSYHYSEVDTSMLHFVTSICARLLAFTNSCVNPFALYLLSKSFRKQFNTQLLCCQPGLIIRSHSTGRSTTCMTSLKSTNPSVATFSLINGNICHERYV
Method: The association curves were recorded at 1 nM and 3 nM of the radiolabeled peptides for 300 min. After reaching the plateau, the medium containing the radioligand was replaced with fresh medium and the dissociation curve was measured for about 16 h. The obtained sensorgrams were analyzed using TracerDrawer (Ridgeview Instruments AB, Uppsala, Sweden) and the dissociation constants (KD) were calculated.

[2] = 40 pmol, Carcass (whole body) uptake
[3] = 40 pmol, GI (gastrointestinal tract, GIT) uptake

In the case of `CC(C)C[C@H](NC(=O)C[C@H](O)[C@H](CC(C)C)NC(=O)[C@H](Cc1c[nH]cn1)NC(=O)CN(C)C(=O)[C@@H](NC(=O)[C@H](C)NC(=O)[C@H](Cc1c[nH]c2ccccc12)NC(=O)[C@H](CCC(N)=O)NC(=O)[C@@H](Cc1ccccc1)NC(=O)COCCOCCNC(=O)CCC(C(=O)O)N1CCN(CC(=O)O)CCN(CC(=O)O)CCN(CC(=O)O)CC1)C(C)C)C(N)=O` (stereo partly drawn) [[^111In]In-AU-RM26-M1, [^111In]In-DOTAGA-PEG2-[Sar^11]RM26, metal not drawn, reference compound], the Kidneys uptake (PC-3 xenografts; iv, 40 pmol, 4 h) is reported as ~ 6.5 %IA/g, the Tumor uptake (PC-3 xenografts; iv, 40 pmol, 4 h) is reported as 6 ± 2 %IA/g and the tissue uptake at 4 h (in vivo; 40 pmol, Blood uptake) is reported as 0.04 ± 0.01 %ID/g. The tissue uptake at 4 h (in vivo; 40 pmol, Bone uptake) was 0.05 ± 0.01 %ID/g, the tissue uptake dose at 4 h (in vivo; [2]) was 1.3 ± 0.5 %ID and the tissue uptake dose at 4 h (in vivo; [3]) was 0.9 ± 0.1 %ID. For the same molecule, the tissue uptake at 4 h (in vivo; 40 pmol, Kidneys uptake) was 6.4 ± 0.6 %ID/g, the tissue uptake at 4 h (in vivo; 40 pmol, Liver uptake) was 0.2 ± 0.1 %ID/g and the tissue uptake at 4 h (in vivo; 40 pmol, Lungs uptake) was 0.08 ± 0.05 %ID/g. It also gave a tissue uptake at 4 h (in vivo; 40 pmol, Muscle uptake) of 0.04 ± 0.02 %ID/g, a tissue uptake at 4 h (in vivo; 40 pmol, Pancreas uptake) of 0.2 ± 0.1 %ID/g and a tissue uptake at 4 h (in vivo; 40 pmol, Small Int uptake) of 0.1 ± 0.04 %ID/g. For the same molecule, the tissue uptake at 4 h (in vivo; 40 pmol, Spleen uptake) was 0.08 ± 0.02 %ID/g, the tissue to tissue ratio at 4 h (in vivo; 40 pmol, Blood) was 133 ± 26 and the tissue to tissue ratio at 4 h (in vivo; 40 pmol, Bone) was 117 ± 16. It also gave a tissue to tissue ratio at 4 h (in vivo; 40 pmol, Kidneys) of 0.9 ± 0.2, a tissue to tissue ratio at 4 h (in vivo; 40 pmol, Liver) of 39 ± 5 and a tissue to tissue ratio at 4 h (in vivo; 40 pmol, Lungs) of 81 ± 25. It also gave a tissue to tissue ratio at 4 h (in vivo; 40 pmol, Muscle) of 234 ± 154, a tissue to tissue ratio at 4 h (in vivo; 40 pmol, Pancreas) of 27 ± 4 and a tissue to tissue ratio at 4 h (in vivo; 40 pmol, Small Int) of 57 ± 7. For the same molecule, the tissue to tissue ratio at 4 h (in vivo; 40 pmol, Spleen) was 72 ± 9.5.
For `CC(C)C[C@H](NC(=O)C[C@H](O)[C@H](CC(C)C)NC(=O)[C@H](Cc1c[nH]cn1)NC(=O)CN(C)C(=O)[C@@H](NC(=O)[C@H](C)NC(=O)[C@H](Cc1c[nH]c2ccccc12)NC(=O)[C@H](CCC(N)=O)NC(=O)[C@@H](Cc1ccccc1)NC(=O)CN1CCC(NC(=O)COCCOCCNC(=O)CCC(C(=O)O)N2CCN(CC(=O)O)CCN(CC(=O)O)CCN(CC(=O)O)CC2)CC1)C(C)C)C(N)=O` (stereo partly drawn) [[^111In]In-AU-RM26-M2, metal not drawn], the “kidney uptake at 24 h pi retained as % of the 4 h renal value” (PC-3 xenografts) was > 80%, the “pancreas uptake at 24 h pi as % of the initial 4 h uptake” value (PC-3 xenografts) was 40% and the “tumor uptake at 24 h pi as % of the 4 h value” (PC-3 xenografts) was 70%. It also gave a tissue uptake at 4 h (in vivo; 40 pmol, Blood uptake) of 0.003 ± 0.002 %ID/g, a tissue uptake at 24 h (in vivo; 40 pmol, Blood uptake) of 0.01 ± 0.002 %ID/g and a tissue uptake at 4 h (in vivo; 40 pmol, Bone uptake) of 0.05 ± 0.03 %ID/g. For the same molecule, the tissue uptake at 24 h (in vivo; 40 pmol, Bone uptake) was 0.04 ± 0.02 %ID/g, the tissue uptake dose at 4 h (in vivo; [2]) was 0.8 ± 0.1 %ID and the tissue uptake dose at 24 h (in vivo; 40 pmol, Carcass uptake) was 0.5 ± 0.2 %ID. It also gave a tissue uptake dose at 4 h (in vivo; [3]) of 0.8 ± 0.5 %ID, a tissue uptake dose at 24 h (in vivo; [3]) of 0.13 ± 0.03 %ID and a tissue uptake at 4 h (in vivo; 40 pmol, Kidneys uptake) of 5 ± 1 %ID/g. For the same molecule, the tissue uptake at 24 h (in vivo; 40 pmol, Kidneys uptake) was 4.1 ± 0.4 %ID/g, the tissue uptake at 4 h (in vivo; 40 pmol, Liver uptake) was 0.12 ± 0.01 %ID/g and the tissue uptake at 24 h (in vivo; 40 pmol, Liver uptake) was 0.11 ± 0.01 %ID/g. It also gave a tissue uptake at 4 h (in vivo; 40 pmol, Lungs uptake) of 0.05 ± 0.01 %ID/g, a tissue uptake at 24 h (in vivo; 40 pmol, Lungs uptake) of 0.05 ± 0.02 %ID/g and a tissue uptake at 4 h (in vivo; 40 pmol, Muscle uptake) of 0.02 ± 0.01 %ID/g. It also gave a tissue uptake at 24 h (in vivo; 40 pmol, Muscle uptake) of 0.02 ± 0.01 %ID/g, a tissue uptake at 4 h (in vivo; 40 pmol, Pancreas uptake) of 0.37 ± 0.08 %ID/g and a tissue uptake at 24 h (in vivo; 40 pmol, Pancreas uptake) of 0.15 ± 0.03 %ID/g. It also gave a tissue uptake at 4 h (in vivo; 40 pmol, Small Int uptake) of 0.1 ± 0.06 %ID/g, a tissue uptake at 24 h (in vivo; 40 pmol, Small Int uptake) of 0.06 ± 0.03 %ID/g and a tissue uptake at 4 h (in vivo; 40 pmol, Spleen uptake) of 0.07 ± 0.02 %ID/g. For the same molecule, the tissue uptake at 24 h (in vivo; 40 pmol, Spleen uptake) was 0.07 ± 0.01 %ID/g, the tissue uptake at 4 h (in vivo; 40 pmol, Tumor uptake) was 7 ± 2 %ID/g and the tissue uptake at 24 h (in vivo; 40 pmol, Tumor uptake) was 4.9 ± 0.7 %ID/g. The tissue uptake dose at 4 h (in vivo; Carcass uptake, Block) was 1 ± 0.5 %ID, the tissue uptake dose at 4 h (in vivo; GI (gastrointestinal tract, GIT) uptake, Block) was 0.46 ± 0.03 %ID and the “released [111In]In3+, ×1000 EDTA (1 h)” value ([1]; 1000-fold molar excess of EDTA) was 5.7 ± 0.7% (3). For the same molecule, the “released [111In]In3+, PBS” value ([1]; incubation in PBS, 1 h) was 5.7 ± 0.2% (3) and the “internalized fraction at 24 h” value (PC-3 cells) was 23 ± 2%.
With `CC(C)C[C@H](NC(=O)C[C@H](O)[C@H](CC(C)C)NC(=O)[C@H](Cc1c[nH]cn1)NC(=O)CN(C)C(=O)[C@@H](NC(=O)[C@H](C)NC(=O)[C@H](Cc1c[nH]c2ccccc12)NC(=O)[C@H](CCC(N)=O)NC(=O)[C@@H](Cc1ccccc1)NC(=O)[C@H](CCCNC(=N)N)NC(=O)COCCOCCNC(=O)CCC(C(=O)O)N1CCN(CC(=O)O)CCN(CC(=O)O)CCN(CC(=O)O)CC1)C(C)C)C(N)=O` (stereo partly drawn) [[^111In]In-AU-RM26-M3, metal not drawn] the Kidneys uptake (PC-3 xenografts; iv, 40 pmol, 4 h) was ~ 3.5 %IA/g, the tissue uptake at 4 h (in vivo; 40 pmol, Blood uptake) was 0.024 ± 0.002 %ID/g and the tissue uptake at 4 h (in vivo; 40 pmol, Bone uptake) was 0.06 ± 0.01 %ID/g. The tissue uptake dose at 4 h (in vivo; [2]) was 1.7 ± 0.3 %ID, the tissue uptake dose at 4 h (in vivo; [3]) was 1.3 ± 0.9 %ID and the tissue uptake at 4 h (in vivo; 40 pmol, Kidneys uptake) was 3.4 ± 0.2 %ID/g. The tissue uptake at 4 h (in vivo; 40 pmol, Liver uptake) was 0.17 ± 0.01 %ID/g, the tissue uptake at 4 h (in vivo; 40 pmol, Lungs uptake) was 0.12 ± 0.01 %ID/g and the tissue uptake at 4 h (in vivo; 40 pmol, Muscle uptake) was 0.03 ± 0.01 %ID/g. The tissue uptake at 4 h (in vivo; 40 pmol, Pancreas uptake) was 0.06 ± 0.01 %ID/g, the tissue uptake at 4 h (in vivo; 40 pmol, Small Int uptake) was 0.08 ± 0.03 %ID/g and the tissue uptake at 4 h (in vivo; 40 pmol, Spleen uptake) was 0.08 ± 0.01 %ID/g. For the same molecule, the tissue uptake at 4 h (in vivo; 40 pmol, Tumor uptake) was 2.5 ± 0.6 %ID/g, the tissue to tissue ratio at 4 h (in vivo; 40 pmol, Blood) was 104 and the tissue to tissue ratio at 4 h (in vivo; 40 pmol, Bone) was 39 ± 8. For the same molecule, the tissue to tissue ratio at 4 h (in vivo; 40 pmol, Kidneys) was 0.7 ± 0.2, the tissue to tissue ratio at 4 h (in vivo; 40 pmol, Liver) was 15 ± 4.5 and the tissue to tissue ratio at 4 h (in vivo; 40 pmol, Lungs) was 33 ± 22. It also gave a tissue to tissue ratio at 4 h (in vivo; 40 pmol, Muscle) of 75 ± 18, a tissue to tissue ratio at 4 h (in vivo; 40 pmol, Pancreas) of 45 ± 15 and a tissue to tissue ratio at 4 h (in vivo; 40 pmol, Small Int) of 35 ± 15. For the same molecule, the tissue to tissue ratio at 4 h (in vivo; 40 pmol, Spleen) was 31 ± 9, the Kd (human GRPR; read-out: KD1) was 245 pM and the Kd (human GRPR; read-out: KD2) was 1400 pM.

Reference: publication PMC11054746, “GRPR-Antagonists Carrying DOTAGA-Chelator via Positively Charged Linkers: Perspectives for Prostate Cancer Theranostics” (Pharmaceutics, 2024)
